The source of these data is patent US6867008 (NEW ENGLAND MEDICAL CENTER HOSPITALS, dated 2005).

For one test, the target named is T1, mERβ1-516/GalBD (mouse, UniProt P04386 1-147; O08537 46-217).
T1 construct: Expression in Y190 confirmed by Western blot
As to the kind of experiment: yeast two-hybrid, HIS and β-galactosidase reporters.

Another test deals with T2, mERβ1-622/GalBD (mouse, UniProt P04386 1-147; O08537 46-252).
T2 construct: about the first 207 codons of the short variant ORF (my reading)
Described as above.

Test [1] has as its target T3, hERα/BD (human estrogen receptor alpha fused to the Gal4 DNA binding domain) (human, UniProt P04386 1-147; P03372 1-595).
T3 construct: also called ERα/GalBD; hERα/GalBD
Put plainly: yeast two-hybrid. The text has this:
Screening of the ovine library yielded clone EC1. […] Yeast strain Y190 was transformed with mERβ/BD in combination with EC1/AD and GalAD respectively and plated on Sc-His (synthetic complete medium, minus histidine) and YPD (yeast extract, peptone, dextrose) plates (FIG. 1A). […] Yeast strain Y190 was also transformed with human ER alpha (hERα)/BD in combination with EC1/AD, hERα/BD and Trip 1/AD and plated on Sc-His and YPD plates. Positive interaction of hERα/BD with […] and Trip 1/GalAD was seen only in the presence of estrogen. Colony lift β-Galactosidase assays were also performed with yeasts from the YPD plate in both FIG. 1A and 1B. TIF2 and TRIP1 homologs were found previously by screening a human heart library with mERβ as bait. […] This implies a new function for ER beta that may be separated from its estrogen binding function.

Test [2] concerns the target T4, [35S]hERα (in vitro translated human estrogen receptor alpha) (human, UniProt P03372 1-595, [35S]methionine labelled).
T4 construct: also called [^35S] labeled hERα; ER alpha
T4 sequence (looked up): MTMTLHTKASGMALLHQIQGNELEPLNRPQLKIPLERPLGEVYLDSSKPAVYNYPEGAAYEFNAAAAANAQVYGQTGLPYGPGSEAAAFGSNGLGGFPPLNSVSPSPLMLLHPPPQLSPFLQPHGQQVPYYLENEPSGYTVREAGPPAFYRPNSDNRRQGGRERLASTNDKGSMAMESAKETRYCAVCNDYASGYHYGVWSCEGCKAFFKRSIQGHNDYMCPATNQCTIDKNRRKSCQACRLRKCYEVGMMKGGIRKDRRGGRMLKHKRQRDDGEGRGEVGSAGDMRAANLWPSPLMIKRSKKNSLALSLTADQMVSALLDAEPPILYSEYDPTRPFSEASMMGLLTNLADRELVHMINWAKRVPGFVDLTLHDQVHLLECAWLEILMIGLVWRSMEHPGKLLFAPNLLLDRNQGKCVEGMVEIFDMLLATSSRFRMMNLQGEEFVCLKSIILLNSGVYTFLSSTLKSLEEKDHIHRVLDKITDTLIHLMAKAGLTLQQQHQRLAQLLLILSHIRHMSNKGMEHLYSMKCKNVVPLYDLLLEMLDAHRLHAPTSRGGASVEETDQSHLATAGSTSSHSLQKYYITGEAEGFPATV
As to the kind of experiment: GST pull-down, SDS-PAGE and autoradiography. Here is the method: Recombinant proteins were incubated at 4° in suspension buffer (20 mM Tris pH7.4, 137 mM NaCl, 2 mM EDTA pH7.4, 1% TritonX-100, 10% Glycerol, 25 mM β-glycerolphosphate, 1 mM Na vanadate, […], 1 mM PMSF) with either one of the GST fusion proteins immobilized on glutathione-Sepharose beads for 1 hour. Beads were then washed three times in suspension buffer, boiled 5 minutes in SDS sample buffer, and associated proteins resolved by SDS-PAGE. Labeled protein bands in gels were then visualized by autoradiography.
[^35S] labeled mERβ was incubated with GST-beads (Lane 2) and GST-EC1 beads (Lane 3) followed by SDS-PAGE and autoradiography. […] In the complementary experiment (FIG. 4B), [^35S]-labeled hsMAD2 was incubated with GST beads (Lane 2) and GST-mERP beads (Lane 3) followed by SDS-PAGE and autoradiography. […] MAD2 input (FIG. 4B). GST-fusion protein interaction studies were also done with hERα. [^35S] labeled hERα was incubated with GST-mERβ (Lane 2, positive control), GST-beads (Lane 3) and GST-EC1 beads followed by SDS-PAGE and autoradiography.

B1: EC1/AD (ovine clone EC1, MAD2 homolog, fused to the Gal4 activating domain, vector pGAD10) (other, not shown: large carriers)
chain: REQGITLRGSAEIVAEFFSFGINSILYQRGIYPSETFTRVQKYGLTLLVTTDPELIKYLNNVVDQLKEWLYKCSVQKLVVVISNIESGEVLERWQFDIECDKTAKDDSAPREKSQKAIQDEIRSVIRQITATVTFLPLLEVSCSFDLLIYTDKDLVVPEKWEESGPQFITNSEEVRLRSFTTTIHKVNSMVAYKIPVHD
notes: Library clone from ovine pulmonary artery endothelial cells; also called EC1/GalAD
For B1, the binding result with mERβ1-516/GalBD was “no binding”; in the test with mERβ1-622/GalBD it was “binds”; in test [1], “no binding”.

B2: GST-EC1 (other)
chain: REQGITLRGSAEIVAEFFSFGINSILYQRGIYPSETFTRVQKYGLTLLVTTDPELIKYLNNVVDQLKEWLYKCSVQKLVVVISNIESGEVLERWQFDIECDKTAKDDSAPREKSQKAIQDEIRSVIRQITATVTFLPLLEVSCSFDLLIYTDKDLVVPEKWEESGPQFITNSEEVRLRSFTTTIHKVNSMVAYKIPVHD
notes: Immobilised on glutathione-Sepharose beads; also called GST-MAD2 clone; GST MAD2; not shown: glutathione S-transferase of vector pGEX-4T-1
For B2, in test [2], the binding result is reported as “no binding”.
